Reference: paper PMC3376392 (Nature, 2012)

Experiments:
NPR3 = biological target: T1, NPR3 (Arabidopsis thaliana, UniProt Q8L746); assay: [3H]-SA binding
T1 sequence (Q8L746 1-586): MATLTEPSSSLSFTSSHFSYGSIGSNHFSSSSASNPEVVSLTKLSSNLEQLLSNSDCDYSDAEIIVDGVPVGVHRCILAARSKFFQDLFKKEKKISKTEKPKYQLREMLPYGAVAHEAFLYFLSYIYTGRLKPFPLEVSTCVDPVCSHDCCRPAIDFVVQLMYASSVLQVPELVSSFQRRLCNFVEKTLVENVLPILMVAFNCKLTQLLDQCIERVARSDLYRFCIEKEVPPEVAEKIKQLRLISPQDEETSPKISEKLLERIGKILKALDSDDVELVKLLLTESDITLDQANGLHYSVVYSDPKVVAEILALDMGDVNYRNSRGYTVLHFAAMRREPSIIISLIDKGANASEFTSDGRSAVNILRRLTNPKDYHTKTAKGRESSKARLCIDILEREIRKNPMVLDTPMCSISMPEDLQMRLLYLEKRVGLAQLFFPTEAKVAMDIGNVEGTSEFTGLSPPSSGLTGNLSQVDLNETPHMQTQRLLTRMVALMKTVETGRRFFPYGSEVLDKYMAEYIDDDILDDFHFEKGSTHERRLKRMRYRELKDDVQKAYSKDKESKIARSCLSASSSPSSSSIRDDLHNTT

His-MBP-NPR1 = biological target: T2, His-MBP-NPR1 (Arabidopsis thaliana, UniProt P93002 1-593); assay: pull-down
T2 sequence: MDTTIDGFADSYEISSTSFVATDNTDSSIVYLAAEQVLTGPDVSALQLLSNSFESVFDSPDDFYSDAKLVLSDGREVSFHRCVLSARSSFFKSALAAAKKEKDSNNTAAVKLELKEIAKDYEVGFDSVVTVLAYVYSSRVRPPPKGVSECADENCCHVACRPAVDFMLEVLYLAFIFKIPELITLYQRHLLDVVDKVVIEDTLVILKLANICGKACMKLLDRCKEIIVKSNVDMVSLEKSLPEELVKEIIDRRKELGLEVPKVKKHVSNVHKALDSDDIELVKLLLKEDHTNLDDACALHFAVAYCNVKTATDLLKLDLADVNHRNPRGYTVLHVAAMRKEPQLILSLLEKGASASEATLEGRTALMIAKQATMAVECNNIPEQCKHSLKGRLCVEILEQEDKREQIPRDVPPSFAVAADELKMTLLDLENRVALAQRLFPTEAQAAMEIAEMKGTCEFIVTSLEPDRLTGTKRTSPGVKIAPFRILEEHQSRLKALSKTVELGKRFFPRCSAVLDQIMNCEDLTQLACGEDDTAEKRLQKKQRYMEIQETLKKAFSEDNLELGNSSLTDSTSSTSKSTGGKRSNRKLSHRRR

SEC = biological target: the molecule itself; assay: SEC

Molecule: O=C(O)c1ccccc1O [SA, Salicylic acid]
- Kd (NPR3): 981 nM

B1: GST-NPR4 (natural protein)
chain: MAATAIEPSSSISFTSSHLSNPSPVVTTYHSAANLEELSSNLEQLLTNPDCDYTDAEIIIEEEANPVSVHRCVLAARSKFFLDLFKKDKDSSEKKPKYQMKDLLPYGNVGREAFLHFLSYIYTGRLKPFPIEVSTCVDSVCAHDSCKPAIDFAVELMYASFVFQIPDLVSSFQRKLRNYVEKSLVENVLPILLVAFHCDLTQLLDQCIERVARSDLDRFCIEKELPLEVLEKIKQLRVKSVNIPEVEDKSIERTGKVLKALDSDDVELVKLLLTESDITLDQANGLHYAVAYSDPKVVTQVLDLDMADVNFRNSRGYTVLHIAAMRREPTIIIPLIQKGANASDFTFDGRSAVNICRRLTRPKDYHTKTSRKEPSKYRLCIDILEREIRRNPLVSGDTPTCSHSMPEDLQMRLLYLEKRVGLAQLFFPAEANVAMDVANVEGTSECTGLLTPPPSNDTTENLGKVDLNETPYVQTKRMLTRMKALMKTVETGRRYFPSCYEVLDKYMDQYMDEEIPDMSYPEKGTVKERRQKRMRYNELKNDVKKAYSKDKVARSCLSSSSPASSLREALENPT
- binding result (His-MBP-NPR1): binds

B2: purified recombinant NPR4 protein (natural protein)
chain: MAATAIEPSSSISFTSSHLSNPSPVVTTYHSAANLEELSSNLEQLLTNPDCDYTDAEIIIEEEANPVSVHRCVLAARSKFFLDLFKKDKDSSEKKPKYQMKDLLPYGNVGREAFLHFLSYIYTGRLKPFPIEVSTCVDSVCAHDSCKPAIDFAVELMYASFVFQIPDLVSSFQRKLRNYVEKSLVENVLPILLVAFHCDLTQLLDQCIERVARSDLDRFCIEKELPLEVLEKIKQLRVKSVNIPEVEDKSIERTGKVLKALDSDDVELVKLLLTESDITLDQANGLHYAVAYSDPKVVTQVLDLDMADVNFRNSRGYTVLHIAAMRREPTIIIPLIQKGANASDFTFDGRSAVNICRRLTRPKDYHTKTSRKEPSKYRLCIDILEREIRRNPLVSGDTPTCSHSMPEDLQMRLLYLEKRVGLAQLFFPAEANVAMDVANVEGTSECTGLLTPPPSNDTTENLGKVDLNETPYVQTKRMLTRMKALMKTVETGRRYFPSCYEVLDKYMDQYMDEEIPDMSYPEKGTVKERRQKRMRYNELKNDVKKAYSKDKVARSCLSSSSPASSLREALENPT
- stoichiometry N (SEC): ~4
